Biological target: fusion protein containing the GS120 linker
Test: FRET or BRET

V227A MBD2 peptide
fold shift of the titration midpoint against the WT MBD2 peptide: 30 fold

Source: doi:10.1101/577536
